Target: T1, recombinant Porin D (P. aeruginosa PAO1, UniProt P32722 24-443)
T1 sequence: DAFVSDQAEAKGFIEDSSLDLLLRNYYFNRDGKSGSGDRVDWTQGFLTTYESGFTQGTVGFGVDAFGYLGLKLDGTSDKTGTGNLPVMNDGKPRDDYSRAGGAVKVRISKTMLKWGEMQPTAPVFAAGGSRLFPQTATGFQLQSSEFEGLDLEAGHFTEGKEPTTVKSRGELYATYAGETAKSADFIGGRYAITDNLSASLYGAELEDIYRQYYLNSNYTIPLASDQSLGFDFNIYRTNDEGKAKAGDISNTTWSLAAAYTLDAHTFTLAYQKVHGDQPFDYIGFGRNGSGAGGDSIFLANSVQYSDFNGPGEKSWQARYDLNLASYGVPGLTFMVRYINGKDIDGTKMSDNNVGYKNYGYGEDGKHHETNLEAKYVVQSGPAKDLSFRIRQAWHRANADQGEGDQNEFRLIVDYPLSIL
Assay: BLI

B1: recombinant vitronectin aa 80-396 (domain or fragment, human, UniProt P04004 80-396, looked up)
chain: DGEEKNNATVHEQVGGPSLTSDLQAQSKGNPEQTPVLKPEEEAPAPEVGASKPEGIDSRPETLHPGRPQPPAEEELCSGKPFDAFTDLKNGSLFAFRGQYCYELDEKAVRPGYPKLIRDVWGIEGPIDAAFTRINCQGKTYLFKGSQYWRFEDGVLDPDYPRNISDGFDGIPDNVDAALALPAHSYSGRERVYFFKGKQYWEYQFQHQPSQEECEGSSLSAVFEHFAMMQRDSWEDIFELLFWGRTSAGTRQPQFISRDWHGVPGQVDAAMAGRIYISGMAPRPSLAKKQRFRHRNRKGYRSQRGHSRGRNQNSRRP
For B1, the Kd was 3.6 nM.

— PMC4836915 (Journal of cystic fibrosis : official journal of the …, 2015)
